The values below come from patent US20240166757A1.

The target in assay [1] is hFcγR 2b (human) (UniProt P31994). The assay can be described thus: BLI; biotinylated avi-tagged receptor-monomeric Fc fusion on streptavidin biosensor, antibody titrated as analyte; 1:1 global fit. (BLI is a label-free optical method that tracks binding on a fibre tip over time.)
The target in assay [2] is hCD64 P2 mFc.67 N297A LALA-PG avi (human) (UniProt P12314). The assay is described as above.
Assay [3] deals with hCD70 Biotin E131664-01 (human) (UniProt P32970). Nature of the assay: BLI; antibody as probe on AHC (anti-Fc) biosensor, hCD70 Biotin titrated as analyte; '37 C' printed with the probe; 1:1 global fit.
The target in assay [4] is hFcRN mFc.67 N297A IHH avi biotin (human) (UniProt P55899). The assay can be described thus: BLI at pH 6.09 (row 'hFcRN pH 6.09'); biotinylated hFcRN-monomeric Fc fusion on streptavidin biosensor, antibody titrated as analyte; 1:1 global fit.
Assay [5] has the same target. Nature of the assay: BLI at pH 7.46 (row 'hFcRN pH 7.46'); biotinylated hFcRN-monomeric Fc fusion on streptavidin biosensor, antibody titrated as analyte; 1:1 global fit.
Assay [6] concerns the target hFcgR 3a F158 mFc.67 N297A LALAPG avi biotin (human) (UniProt P08637). The assay can be described thus: BLI; biotinylated avi-tagged receptor-monomeric Fc fusion on streptavidin biosensor, antibody titrated as analyte; 1:1 global fit.
Assay [7] has as its target hFcgR 2a H131 mFc.67 N297A LALAPG avi biotin (human) (UniProt P12318). The assay is described as above.
The target in assay [8] is hFcgR 2a R131 mFc.67 N297A LALAPG avi biotin (human) (UniProt P12318). The description is as above.
Assay [9] deals with hCD70 Biotin E131664-01 (human) (UniProt P32970). The assay can be described thus: BLI; antibody as probe on AHC (anti-Fc) biosensor, hCD70 Biotin titrated as analyte; '37 C' printed with the probe; 1:1 global fit [Cont.].
Assay [10] has as its target hFcgR 3a V158 mFc.67 N297A LALAPG avi biotin (human) (UniProt P08637). Nature of the assay: BLI; biotinylated FcγR fusion on streptavidin biosensor, antibody titrated; 1:1 global fit.
The target in assay [11] is cynomolgus FcγRIIIa receptor overexpressed on CHO cells (cynomolgus) (UniProt Q8SPW2). Nature of the assay: flow cytometry on CHO cells overexpressing cynomolgus FcγRIIIa (CHO/cynoCD16); detection with anti-human IgG-PE. For orientation: Flow cytometry measures light scatter and fluorescence of single cells or particles in a stream.
The target in assay [12] is high affinity human FcγRIIIa receptor (158V) overexpressed on CHO cells (human) (UniProt P08637). Nature of the assay: flow cytometry on CHO cells overexpressing human FcγRIIIa 158V (CHO/hCD16); detection with anti-human IgG-PE.
Sequence of high affinity human FcγRIIIa receptor (158V) overexpressed on CHO cells (human) (P08637 17-254 F176V): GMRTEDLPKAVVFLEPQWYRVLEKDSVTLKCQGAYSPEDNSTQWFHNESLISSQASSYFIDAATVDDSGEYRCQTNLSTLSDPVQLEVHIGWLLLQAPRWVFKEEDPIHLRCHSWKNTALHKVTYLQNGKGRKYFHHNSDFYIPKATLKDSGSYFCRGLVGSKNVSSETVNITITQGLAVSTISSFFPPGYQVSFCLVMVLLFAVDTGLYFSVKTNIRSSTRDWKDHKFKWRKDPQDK

Sequence of hCD70 Biotin E131664-01 (human) (P32970 39-193 limits assumed): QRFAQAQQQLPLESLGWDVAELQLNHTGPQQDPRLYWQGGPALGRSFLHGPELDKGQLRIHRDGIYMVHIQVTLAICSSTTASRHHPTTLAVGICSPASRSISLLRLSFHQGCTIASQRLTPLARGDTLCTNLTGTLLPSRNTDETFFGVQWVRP
Sequence of hFcγR 2b (human) (P31994 43-217): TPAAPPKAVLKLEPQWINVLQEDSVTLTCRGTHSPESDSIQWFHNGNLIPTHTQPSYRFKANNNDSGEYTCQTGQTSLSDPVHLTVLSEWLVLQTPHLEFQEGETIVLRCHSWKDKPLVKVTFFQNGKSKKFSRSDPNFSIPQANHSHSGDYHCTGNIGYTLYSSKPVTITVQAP
Sequence of cynomolgus FcγRIIIa receptor overexpressed on CHO cells (cynomolgus) (Q8SPW2 17-254): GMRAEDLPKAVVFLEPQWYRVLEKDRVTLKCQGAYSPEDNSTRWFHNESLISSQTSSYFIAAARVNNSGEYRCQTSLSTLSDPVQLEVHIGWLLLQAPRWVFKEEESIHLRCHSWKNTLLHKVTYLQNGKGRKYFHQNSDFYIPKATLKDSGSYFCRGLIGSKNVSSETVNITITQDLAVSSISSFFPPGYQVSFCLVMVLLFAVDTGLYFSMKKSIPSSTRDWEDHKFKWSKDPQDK

B1: SEA-CD70 (nonfucosylated h1F6) (antibody, INN chains, looked up, V domains shown, part only)
VH: QVQLVQSGAEVKKPGASVKVSCKASGYTFTNYGMNWVRQAPGQGLKWMGWINTYTGEPTYADAFKGRVTMTRDTSISTAYMELSRLRSDDTAVYYCARDYGDYGMDYWGQGTTVTVSS
VL: DIVMTQSPDSLAVSLGERATINCRASKSVSTSGYSFMHWYQQKPGQPPKLLIYLASNLESGVPDRFSGSGSGTDFTLTISSLQAEDVAVYYCQHSREVPWTFGQGTKVEIK
modifications: nonfucosylated afucosylated
For orientation: Kd means the equilibrium constant for the complex coming apart. With B1, the Kd was 27 µM in assay [1]; 0.42 nM in assay [2]; 0.24 nM in [3]; 19 nM in assay [4]; 16.7 µM in assay [5].

B2: SGN-70 (fucosylated h1F6) (antibody, INN chains, looked up, V domains shown, part only)
VH: QVQLVQSGAEVKKPGASVKVSCKASGYTFTNYGMNWVRQAPGQGLKWMGWINTYTGEPTYADAFKGRVTMTRDTSISTAYMELSRLRSDDTAVYYCARDYGDYGMDYWGQGTTVTVSS
VL: DIVMTQSPDSLAVSLGERATINCRASKSVSTSGYSFMHWYQQKPGQPPKLLIYLASNLESGVPDRFSGSGSGTDFTLTISSLQAEDVAVYYCQHSREVPWTFGQGTKVEIK
In general, kon refers to the rate constant with which the complex forms. The EC50 (read off the curve) is the concentration needed to bring the measured effect to its halfway point. High values mean lower potency in that assay, low ones higher potency in that assay. Regarding B2, the Kd in assay [6] worked out at 5.3 µM; in [7], 2600 nM; in assay [8], 4.5 µM; in [1] it was 25 µM; in assay [2] it was 0.66 nM; in assay [3] it was 0.23 nM. In addition, the figures for the Kd in assay [4], in [5] and in assay [10] were 17 nM, 15 µM and 860 nM, respectively. The kon in assay [6] worked out at 27000 M⁻¹ s⁻¹; in assay [7] it was 100000 M⁻¹ s⁻¹; in assay [8], 77000 M⁻¹ s⁻¹; in assay [1], 26000 M⁻¹ s⁻¹; in assay [2] it was 770000 M⁻¹ s⁻¹; in [4], 720000 M⁻¹ s⁻¹. For the same molecule, the on-rate (kon) in assay [9] was found to be 270000 M⁻¹ s⁻¹; in assay [5], 42000 M⁻¹ s⁻¹. For the same molecule, the EC50 (read off the curve) in assay [11] and in assay [12] was 1 µg/mL each time.
